Substitutions are numbered along the chain they refer to.
Columns and labels:
[1] = target: T1, GFP::3xFLAG::HRDE-1(HK-AA) (C. elegans, UniProt Q09249 1-1032, H664A | K668A); assay: co-IP; lysate of adult animals; anti-FLAG beads precipitate GFP::3xFLAG::HRDE-1, HRDE-2::2xTy1::GFP detected with anti-Ty1; wild-type, mut-2 mutant and hrde-1(HK-AA) backgrounds; band intensities by ImageJ normalized to HRDE-1 immunoprecipitated and to wild-type; settings: partners not purified
T1 construct: Tag ends are read from the strain notation; Repair template is in Supplementary Data 3; source: C. elegans strain hrde-1(cmp309[HK-AA]) made in hrde-1(tor125[GFP::3xFLAG::hrde-1]), adult animals, in lysate; not shown: GFP, N-terminal, kept; 3xFLAG, N-terminal, kept
T1 sequence (looked up): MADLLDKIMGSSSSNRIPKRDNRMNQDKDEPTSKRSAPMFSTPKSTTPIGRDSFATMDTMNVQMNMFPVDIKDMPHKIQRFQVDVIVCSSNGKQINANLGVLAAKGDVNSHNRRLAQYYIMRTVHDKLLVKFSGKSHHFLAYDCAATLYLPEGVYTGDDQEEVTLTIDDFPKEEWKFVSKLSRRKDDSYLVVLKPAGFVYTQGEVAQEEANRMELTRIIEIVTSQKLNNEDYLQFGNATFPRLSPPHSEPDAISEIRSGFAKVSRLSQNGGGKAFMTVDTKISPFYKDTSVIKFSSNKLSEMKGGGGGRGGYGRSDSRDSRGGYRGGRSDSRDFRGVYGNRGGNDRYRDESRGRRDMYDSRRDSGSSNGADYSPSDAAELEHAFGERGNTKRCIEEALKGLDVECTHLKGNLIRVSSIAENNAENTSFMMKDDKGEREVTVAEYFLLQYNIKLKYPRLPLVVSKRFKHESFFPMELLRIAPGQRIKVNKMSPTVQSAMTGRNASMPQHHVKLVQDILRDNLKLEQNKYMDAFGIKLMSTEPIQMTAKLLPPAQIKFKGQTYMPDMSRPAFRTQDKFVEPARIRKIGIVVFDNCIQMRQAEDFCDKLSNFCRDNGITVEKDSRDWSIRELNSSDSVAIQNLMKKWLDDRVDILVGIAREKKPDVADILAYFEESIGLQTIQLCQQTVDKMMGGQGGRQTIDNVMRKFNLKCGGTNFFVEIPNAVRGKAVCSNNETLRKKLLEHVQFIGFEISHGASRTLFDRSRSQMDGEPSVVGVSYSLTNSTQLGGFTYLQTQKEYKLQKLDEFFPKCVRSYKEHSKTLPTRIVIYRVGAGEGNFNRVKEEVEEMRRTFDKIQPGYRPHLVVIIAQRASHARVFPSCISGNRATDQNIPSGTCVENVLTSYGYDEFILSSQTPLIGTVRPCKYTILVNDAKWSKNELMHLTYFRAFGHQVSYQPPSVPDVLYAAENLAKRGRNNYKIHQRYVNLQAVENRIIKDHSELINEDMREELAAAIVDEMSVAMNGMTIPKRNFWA

GFP::3xFLAG::HRDE-1 = target: T2, GFP::3xFLAG::HRDE-1 (C. elegans, UniProt Q09249 1-1032); assay: as above; settings: partners not purified
T2 construct: HRDE-1/WAGO-9, germline nuclear Argonaute, C. elegans, tagged in the worm strain; Tag ends are read from the strain notation GFP::3xFLAG::HRDE-1; also called HRDE-1/WAGO-9; wild-type HRDE-1; source: C. elegans strain hrde-1(tor125[GFP::3xFLAG::hrde-1]), adult animals, in lysate; not shown: GFP, N-terminal, kept; 3xFLAG, N-terminal, kept
T2 sequence (looked up): T1 sequence (looked up) with A664H, A668K

- fold change of co-precipitated HRDE-2 against wild-type HRDE-1 [1]: ~3.3 fold
- fold change of co-precipitated HRDE-2 in the mut-2 mutant against wild-type (GFP::3xFLAG::HRDE-1): ~2.18 fold
B1: HRDE-2::2xTy1::GFP (natural protein, C. elegans, UniProt Q22058 1-305, looked up)
chain: MSQNSDTFDSGLQMEVHKMAEADNSSVQQKFDAIRDYIGRKETTIILCEHDDSRKIKLTLNKQRMESSMFLTEMPDGGIQEKTKFHRNGLAVCSYNAFDEVDLPLADSYIFYGLPSNVEAFPRMLHGIEKSAHKENKIVFIDIVVSILEKIQIKVVSFELYNRKCTVPTWVAELVITYCAPIEEQQQRIEEIRRTRASVPVAISDAANGSAEMVPSNTTGSSGSPMSTAPVPAAKKEKVQYESIRQIRPNAQGRYFVPARMINMDIEMSNDEYSPDESENDENEYDYENAARYDDGYDEGHEYCQ
notes: HRDE-2 (HRDE-2/ENRI-3), C. elegans, tagged in the worm strain; Tag ends are read from the strain notation HRDE-2::2xTy1::GFP; also called HRDE-2/ENRI-3; source: C. elegans strain hrde-2/enri-3(tag1660[hrde-2/enri-3::2xTy1::GFP]), adult animals, in lysate; not shown: 2xTy1, C-terminal, kept; GFP, C-terminal, kept

— paper PMC10834429, “HRDE-2 drives small RNA specificity for the nuclear Argonaute protein HRDE-1” (Nature Communications, 2024)
